Experiments:
[1] = biological target: XENP37827 (IL18×Fab-Fc fusion with WT-4CS IL18 and a silent Fv) (human); experiment: cell-based or functional assay
[2] = biological target: XENP38865 (IL18×Fab-Fc fusion, IL18 4CS/K53A, silent Fv) (human); experiment: cell-based or functional assay
XENP38865 (IL18×Fab-Fc fusion, IL18 4CS/K53A, silent Fv) (human), sequence (Q14116 other isoform, or with tags, fused parts or gaps K53A K53A): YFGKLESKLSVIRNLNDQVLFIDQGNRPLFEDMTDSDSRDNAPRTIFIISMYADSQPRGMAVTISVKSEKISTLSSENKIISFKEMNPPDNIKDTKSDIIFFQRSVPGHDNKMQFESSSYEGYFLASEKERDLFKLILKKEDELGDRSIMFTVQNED

XENP37827 (IL18×Fab-Fc fusion with WT-4CS IL18 and a silent Fv) (human), sequence (Q14116 other isoform, or with tags, fused parts or gaps): as the sequence (Q14116 other isoform, or with tags, fused parts or gaps K53A K53A) above, with A53K counted along it

IL18 binding protein (IL18BP) (from UniProt O95998 31-194)
IC50 of dose dependent inhibition of KG-1 cell activation (induction of PD-L1 expression) by IL18BP at fixed concentration (10 nM) of the IL18 fusion [1]: 5.5 nM | IC50 of dose dependent inhibition of KG-1 cell activation (induction of PD-L1 expression) by IL18BP at fixed concentration (10 nM) of the IL18 fusion [2]: 88.7 nM

Source: patent US20240166705A1
